Biological target: MobK-6His (Klebsiella pneumoniae (plasmid pIGRK))
Assay: cross-linking; about 400 ng MobK-6His incubated with increasing glutaraldehyde (0%, 0.001%, 0.0025%, 0.005%, 0.025%, 0.05%); SDS-PAGE and Western blot with anti-6His antibody; monomer to dimer

Substance: MobK-6His (enzyme)
- stoichiometry N: 2

— article PMC8152469
